According to patent US10028997B2, “Systems and methods for attracting and trapping brain cancer cells” (GEISINGER HEALTH SYSTEM, priority 2014, dated 2018):

B1: lipocalin-2 (protein, listed as Homo sapiens)
chain: MPLGLLWLGLALLGALHAQAQDSTSDLIPAPPLSKVPLQQNFQDNQFQGKWYVVGLAGNAILREDKDPQKMYATIYELKEDKSYNVTSVLFRKKKCDYWIRTFVPGCQPGEFTLGNIKSYPGLTSYLVRVVSTNYNQHAMVFFKKVSQNREYFKITLYGRTKELTSELKENFIRFSKSLGLPENHIVFPVPIDQCIDG
notes: member of the lipocalin family, a 23 kDa hydrophilic protein
B2: denatured Lcn2: Lcn2 denatured by boiling in SDS buffer for 10 minutes (protein)
chain: QDSTSDLIPAPPLSKVPLQQNFQDNQFQGKWYVVGLAGNAILREDKDPQKMYATIYELKEDKSYNVTSVLFRKKKCDYWIRTFVPGCQPGEFTLGNIKSYPGLTSYLVRVVSTNYNQHAMVFFKKVSQNREYFKITLYGRTKELTSELKENFIRFSKSLGLPENHIVFPVPIDQCIDG

Columns and labels:
Type in all cases: cell-based
[1] = tested on: human glioblastoma stem cells (hGSCs); assay: Chemotaxis assay plate, linear Lcn2 gradient; settings: linear gradient of 10 μg/ml Lcn2 for 8 hours, FIGS. 4A-C
[2] = tested on: human glioblastoma stem cells (hGSCs); assay: XCELLIGENCE RTCA CIM-16 (Boyden chamber) migration of hGSCs, Lcn2 in lower chamber
Description: Human glioblastoma stem cells (hGSCs) were seeded in an XCELLIGENCE RTCA CIM-16 plate, which functions as a Boyden chamber, in serum-free media. The XCELLIGENCE system (ACEA BIOSCIENCES, INC.) measures total surface area covered by cell membrane by detecting the electrical impedance, using microelectronic biosensor technology (Ness et al., NATURE COMMUNICATIONS 4:1912 (2013)). The lower chamber was supplemented with 10 μg/ml Lcn2 or 10% serum. Cell migration from the upper to the lower chamber was measured and plotted over time and the migration slope was calculated using RTCA DP software (ACEA BIOSCIENCES, INC.). The experiment was repeated four times and the results are presented as average+/−standard deviation.

human glioblastoma cells = assay: XCELLIGENCE migration after Lcn2 pre-treatment of glioblastoma cells; settings: pre-treated with 10 μg/ml Lcn2 for 24 hours; p<0.0001; FIGS. 2B and 2C
Description: To further determine the effect of Lcn2 on glioblastoma cell migration, glioblastoma cells were first pre-treated with 10 μg/ml Lcn2 for 24 hours. Migration was subsequently quantified using the XCELLIGENCE system in the presence or absence of Lcn2 as a chemo-attractant in the lower Boyden chamber.

[3] = tested on: human glioblastoma stem cells (hGSCs); assay: Boyden chamber migration, crystal violet staining and microscope cell count; settings: for hGSC migration (cells counted in bottom chamber): 10 μg/ml in bottom chamber, 16 hours, serum free medium, p<0.0001, FIGS. 3B and 3C
Description: Finally, human glioblastoma cell migration was also observed under the microscope. hGSCs were seeded in the upper Boyden chamber in serum free medium. Lcn2 was added to the bottom chamber at 10 μg/ml and cells were allowed to migrate for 16 hours. The bottom chamber was fixed and stained with crystal violet and cells were counted using a Zeiss Phase Contrast microscope at 10× magnification. […] To show the specificity of the Lcn2 chemotactic effect and to determine if the effect of Lcn2 on migration is […], Lcn2 was denatured by boiling in SDS buffer for 10 minutes and then added to the bottom Boyden chamber.

Row | Molecule | migration towards the opposite direction (chemokinesis) [1] | migration toward the linear Lcn2 gradient (chemotaxis) ([1]; p<0.005) | migration of hGSCs from upper to lower chamber ([2]; 10 μg/ml Lcn2 in lower chamber vs 10% serum, serum-free media, FIG. 2A) | attraction of hGSCs toward the bottom chamber containing the Lcn2 depot ([2]; 10 μg/ml Lcn2 in lower chamber, FIG. 3A) | migration after pre-treatment with Lcn2 (human glioblastoma cells) | hGSC migration (cells counted in bottom chamber) [3] | rate of migration of hGSCs, lipocalin-2 in one chamber versus PBS in one chamber or lipocalin-2 in both chambers ([3]; FIGS. 3B, 3C)
1 | B1 | no difference in migration towards the opposite direction | increased migration toward the linear Lcn2 gradient | increases the migration of hGSCs as compared to serum alone | significantly attracts hGSCs toward the bottom chamber | induced a significant increase in migration | a significant increase in hGSC migration was observed | increases the rate of migration of human glioblastoma stem cells (hGSCs) to the lipocalin-2-containing chamber
2 | B2 |  |  |  |  |  | No effect on hGSC migration was observed | 
